Reference: PMC2671166, “Site Directed Mutagenesis of Amino Acid Residues at the Active Site of Mouse Aldehyde Oxidase AOX1” (PLoS ONE, 2009)

Target: the molecule itself
Test: SEC; purified mAOX1; single peak with an approximate molecular mass of 300 kDa; data not shown

B1: Mouse aldehyde oxidase AOX1 (recombinant, wild-type) (enzyme, UniProt O54754 1-1333, looked up)
chain: MDPIQLLFYVNGQKVVEKNVDPEMMLLPYLRKNLRLTGTKYGCGGGGCGACTVMISRYNPSTKAIRHHPVNACLTPICSLHGTAVTTVEGLGNTRTRLHPIQERIAKCHGTQCGFCTPGMVMSMYALLRNHPEPTLDQLTDALGGNLCRCTGYRPIIDACKTFCKASACCQSKENGVCCLDQEINGLAESQEEDKTSPELFSEEEFLPLDPTQELIFPPELMRIAEKQPPKTRVFYGERVTWISPVTLKELVEAKFKYPQAPIVMGYTSVGPEVKFKGVFHPIIISPDRIEELGVISQARDGLTLGAGLSLDQVKDILADIVQKLPEEKTQTYRALLKHLRTLAGSQIRNMASLGGHIVSRHLDSDLNPLLAVGNCTLNLLSKDGERRIPLSEEFLRKCPEADLKPQEVLVSVNIPWSRKWEFVSAFRQAQRQQNALAIVNSGMRVLFREGGGVIEELSILYGGVGSTIISAKNSCQRLIGRPWNEGMLDTRCRLVLDEVTLAASAPGGKVEFKRTLIISFLFKFYLEVSQGLKREDPGHSPSLAGNHESALDDLHSKHPWRTLTHQNVDPAQLPQDPIGRPIMHLSGIKHATGEAIYCDDMPAVDRELFLTFVTSSRAHAKIVSIDLSEALSLPGVVDIITADHLQEANTFGTETFLATDEVHCVGHLVCAVIADSETRAKQAAKQVKVVYQDLAPLILTIEEAIQHKSFFKSERKLECGNVDEAFKIVDQILEGEIHIGGQEHFYMETQSMLVVPKGEDGEIDIYVSTQFPKYIQDIVAATLKLSANKVMCHVRRVGGAFGGKVGKTSILAAITAFAASKHGRAVRCILERGEDMLITGGRHPYLGKYKAGFMNEGRILALDVEHYCNGGCSLDESLWVIEMGLLKLDNAYKFPNLRCRGWACRTNLPSNTALRGFGFPQAGLVTEACITEVAIKCGLSPEQVRTINMYKHVDTTHYKQEFSAKALSECWRECMAKCSYFERKAAIGKFNAENSWKKRGMAVIPLKFPVGIGSVAMGQAAALVHIYLDGSALVSHGGIEMGQGVHTKMIQVVSRELRMPMSSVHLRGTSTETVPNTNASGGSVVADLNGLAVKDACQTLLKRLEPIISKNPQGTWKDWAQTAFDQSISLSAVGYFRGYESNIDWEKGEGHPFEYFVFGAACSEVEINCLTGDHKNIRTNIVMDVGHSINPALDIGQVEGAFIQGMGLYTIEELSYSPQGTLYSRGPNQYKIPAICDIPTEMHISFLPPSEHSNTLYSSKGLGESGVFLGCSVFFAIHDAVKAARQERGISGPWKLNSPLTPEKIRMACEDKFTKMIPRDEPGSYVPCNIPV
notes: mouse aldehyde oxidase AOX1, cDNA cloned from mouse CD1 liver into the NdeI-SalI sites of pTrcHis (plasmid pSL205); band of 150 kDa on SDS-PAGE; Holds Moco, two [2Fe-2S] clusters and FAD as cofactors; also called mAOX1; mAOX1-WT; source: E. coli TP1000, coexpressed with mMCSF, purified (Ni-NTA, Superose 12, benzamidine sepharose)
stoichiometry N: 2
